Assay results: patent US7109170B2, “Region of factor IXa protease domain that interacts with factor VIIIa and methods therefor” (Saint Louis University, priority 1999, dated 2006)
Peptide text beside a SMILES is read from it.

Columns and labels:
factor IXa = molecular target: T1, factor IXa (Homo sapiens, UniProt P00740); assay: Factor IX peptide competition assay in the absence of factor VIIIa; assay type: biochemical
T1 construct: heavy chain of factor IXa comprised of residues 181–415; light chain of factor IXa comprised of residues 1–145
Experimental: Each reaction mixture contained 20 nM of factor IXa, 100 nM of factor X, various concentrations of peptide, 25 μM of phospholipid, and 5 mM CaCl2 in TBS/BSA. The reaction mixtures were incubated for 2.5, 5, 10, 15, and 20 minutes at 37° C. and were stopped with the addition of 1.5 μL of 0.5 M EDTA and placed on ice. Forty μL of each reaction was 5 added to 100 μL of TBS/BSA in a 96 well microtiter plate and S-2222 was added to a final concentration of 100 μM.

[1] = molecular target: mouse monoclonal antibody (mAb) that inhibits the interaction of factor IXa with factor VIIIa; assay: binding of IX proteins to mAb that interferes with IXa:VIIIa interaction (coagulant based / competition assay)
factor XIa/Ca2+ = molecular target: T2, factor XIa/Ca2+ (Homo sapiens, UniProt P03951); assay: activation of factor IX mutants by factor XIa/Ca2+ (SDS gel); assay type: biochemical; settings: analyzed by SDS gel electrophoresis
T2 construct: purchased Enzyme Research Laboratories (South Bend, Ind.)
Experimental: The rates of activation of the protease domain factor IX mutants by VIIa/TF and by Factor Xla/Ca^2+ was also determined, under conditions described in Mathur et al., 1997, supra, either by VIIa/TF/Ca^2+ or by factor Xla/Ca^2+. The rates of the mutants were similar to that of IXNP as analyzed by SDS gel electrophoresis.
Various DEGR-ck-inhibited factor IXa proteins were prepared for these experiments as follows. IXNP, IXWT, and each mutant factor IX at 200 μg/ml was activated by factor XIa (2 μg/ml) for 90 min. in TBS, pH 7.4 (0.05 M Tris, 0.15 M NaCl, pH 7.4) containing 5 mM Ca^2+. […] DEGR-IXaNP, DEGR-IXaWT, and various DEGR-IXa mutant proteins were prepared as described in Mathur et al., 1997, supra, and free DEGR-ck was removed as described in Sabharwal et al., 1995, supra and Krishnaswamy, 1992, J. Biol. Chem. 267, 23696–23706.

factor VIIIa [2] = molecular target: T3, factor VIIIa (Homo sapiens, UniProt P00451); assay: inhibition of Xa generation by active site-blocked (DEGR) IXa proteins, presence of phospholipid (Kd,app for VIIIa); assay type: biochemical; settings: active site-blocked (DEGR) IXa proteins, 10 μM phospholipid; read-out: Kd, app for interaction with factor VIIIa, PL-plus system
T3 construct: purchased Dr. Leon Hoyer (American Red Cross, Rockville, Md.)
T3 sequence (P00451 20-759 limits assumed): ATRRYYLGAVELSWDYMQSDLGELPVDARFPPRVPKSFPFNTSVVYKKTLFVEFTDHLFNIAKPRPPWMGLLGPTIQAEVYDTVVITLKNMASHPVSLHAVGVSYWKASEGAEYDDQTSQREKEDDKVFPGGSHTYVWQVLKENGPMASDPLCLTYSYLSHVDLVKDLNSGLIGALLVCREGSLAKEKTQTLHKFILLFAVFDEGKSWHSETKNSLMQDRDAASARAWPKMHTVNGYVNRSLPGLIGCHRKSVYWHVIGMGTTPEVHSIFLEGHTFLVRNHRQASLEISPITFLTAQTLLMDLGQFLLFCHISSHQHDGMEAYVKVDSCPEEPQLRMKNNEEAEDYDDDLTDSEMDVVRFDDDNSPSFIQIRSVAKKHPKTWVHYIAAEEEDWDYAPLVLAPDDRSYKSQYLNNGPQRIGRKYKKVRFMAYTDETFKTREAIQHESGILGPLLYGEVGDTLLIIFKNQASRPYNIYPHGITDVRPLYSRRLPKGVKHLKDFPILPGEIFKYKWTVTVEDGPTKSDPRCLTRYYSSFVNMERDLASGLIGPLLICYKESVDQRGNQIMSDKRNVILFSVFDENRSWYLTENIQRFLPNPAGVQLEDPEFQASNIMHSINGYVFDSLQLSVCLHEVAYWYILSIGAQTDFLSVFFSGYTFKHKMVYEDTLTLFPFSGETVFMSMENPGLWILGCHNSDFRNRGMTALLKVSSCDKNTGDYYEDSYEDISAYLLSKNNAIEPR
T3 sequence (P00451 1668-2351 limits assumed): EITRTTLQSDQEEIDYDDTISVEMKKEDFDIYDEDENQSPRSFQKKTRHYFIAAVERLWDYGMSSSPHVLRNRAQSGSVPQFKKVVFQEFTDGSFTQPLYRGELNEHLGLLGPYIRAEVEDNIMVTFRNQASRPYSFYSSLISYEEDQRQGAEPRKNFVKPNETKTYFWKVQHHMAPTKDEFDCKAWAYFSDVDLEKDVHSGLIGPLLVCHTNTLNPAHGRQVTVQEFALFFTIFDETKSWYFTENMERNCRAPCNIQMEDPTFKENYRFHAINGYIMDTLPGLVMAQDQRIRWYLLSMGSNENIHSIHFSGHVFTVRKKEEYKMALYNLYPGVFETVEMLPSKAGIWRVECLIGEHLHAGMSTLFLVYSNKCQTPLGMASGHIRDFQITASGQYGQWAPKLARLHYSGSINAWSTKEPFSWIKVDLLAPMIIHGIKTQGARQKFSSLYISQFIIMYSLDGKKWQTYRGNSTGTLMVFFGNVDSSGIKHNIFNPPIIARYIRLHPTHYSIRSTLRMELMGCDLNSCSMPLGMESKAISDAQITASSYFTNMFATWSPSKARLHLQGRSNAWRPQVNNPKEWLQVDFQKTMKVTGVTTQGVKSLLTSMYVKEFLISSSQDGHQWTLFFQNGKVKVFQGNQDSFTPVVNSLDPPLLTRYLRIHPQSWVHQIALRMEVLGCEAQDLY
Experimental: (§1) Apparent Kds of factor VIIIa binding to various active site-blocked factor IXa proteins were determined from inhibition experiments as detailed in Mathur et al., 1997, supra. […] Reactions were carried out for 2 min and the rates of factor X activation were measured as outlined above.
(§2) Various DEGR-ck-inhibited factor IXa proteins were prepared for these experiments as follows. IXNP, IXWT, and each mutant factor IX at 200 μg/ml was activated by factor XIa (2 μg/ml) for 90 min. in TBS, pH 7.4 (0.05 M Tris, 0.15 M NaCl, pH 7.4) containing 5 mM Ca^2+.
(§3) Enzymol. 74, 481–508 given below:
(§4) [formula] where y is the rate of Xa formation in the presence of a given concentration of DEGR-IXa protein represented by x, a is the maximum rate of Xa formation in the absence of DEGR-IXa, and s is the slope factor. Each point was weighted equally and the data were fitted to Equation 1 using the nonlinear regression analysis program obtained from Erithacus Software (GraFit). […] To obtain the Kd,app values for the interaction of DEGR-IXa proteins with factor VIIIa, the following equation was used, as described by Cheng and Prusoff, 1973, Biochem. Pharmacol. 22, 3099–3108 and further discussed by Craig, 1993, Trends Pharmacol. Sci. 6, 68–71.

factor X [3] = molecular target: T4, factor X (Homo sapiens, UniProt P00742); assay: factor X activation by IXa proteins, Ca2+ and phospholipid, without VIIIa; assay type: biochemical; parameters: Normal human plasma factor IX (IXNP) and factor X were isolated as described in Bajaj and Birktoft; from tissue; host or cells: human plasma; settings: no VIIIa, 20 nM IXa, 25 μM phospholipid, 100 nM X
Experimental: (§5) The ability of each activated mutant to activate factor X in the presence and absence of phospholipid and factor VIIIa was determined as follows. The activation was carried out at 37° C. in a 50 μl reaction volume, in TBS/BSA pH 7.4, for various time periods. At the end of the incubation time period, each reaction mixture received 1 μl of 0.5 M EDTA to stop further generation of factor Xa. A 40 μL aliquot was then added to 0.1 ml quartz cuvette containing S-2222 in 75 μL of TBS/BSA, pH 7.4. The final concentration of S-2222 was 100 μM. The p-nitroaniline release was measured continuously (ΔA405/min) for up to 20 min (Sabharwal et al., 1995 supra; Sabharwal et al., 1997, supra). Factor Xa generated was calculated from a standard curve constructed using factor Xa prepared from insolubilized Russell's viper venom.
(§6) Factor X activation measurements were made under four experimental regimes. In one, Ca^2+ and phospholipid were present. In this system activation was carried out for 5–15 minutes and the concentration of each IXa protein was 20 nM, phospholipid was 25 μM, and factor X was 100 nM. In the second regime, Ca^2+, phospholipid and factor VIIIa were present. […] In the third regime, only Ca^2+ was present. Here, activation was carried out for 2–20 min and concentration of each IXa protein was 400 nM and factor X was 1 μM. Finally, in the fourth regime, Ca^2+ and VIIIa were present. […]

factor VIIIa [4] = molecular target: T3, factor VIIIa; assay: inhibition of Xa generation by active site-blocked (DEGR) IXa proteins, absence of phospholipid (Kd,app for VIIIa); assay type: biochemical; settings: active site-blocked (DEGR) IXa proteins, no phospholipid
Experimental: as §1, §2, §3, §4

factor X [5] = molecular target: T4, factor X; assay: factor X activation by IXa proteins, Ca2+ only; assay type: biochemical; parameters: Normal human plasma factor IX (IXNP) and factor X were isolated as described in Bajaj and Birktoft; from tissue; host or cells: human plasma; settings: 1 μM X, 400 nM IXa, no phospholipid, no VIIIa
Experimental: as §5, §6

factor VIIIa [6] = settings: from other studies; cited from earlier work
[7] = from other studies; cited from earlier work

Molecule: CC(C)C[C@H](N)C(=O)N[C@H](C(=O)N[C@@H](CC(=O)O)C(=O)N[C@@H](CCCNC(=N)N)C(=O)N[C@@H](C)C(=O)N[C@H](C(=O)O)[C@@H](C)O)C(C)C [Protein P-4351, LVDRAT] (H-LVDRAT-OH; N-terminus and C-terminus assumed)
- inhibitory effect on factor IXa's ability to activate factor X (factor IXa): no inhibitory effect

Molecule: IXQ50P: factor IX mutant that lacks the EGF1 domain Ca2+ binding site
- Kd [1]: ~15 nM
- rate of activation by factor XIa/Ca2+ (factor XIa/Ca2+): readily activated

Molecule: IXaPCEGF1: activated factor IX with EGF1 domain replaced by that of protein C
- Kd (factor VIIIa [2]): 5.71 ± 0.82 nM
- rate of factor Xa generation (factor X [3]): 0.06 nM/min
- Kd, app for interaction with factor VIIIa, PL-minus system (factor VIIIa [4]): indistinguishable from that of normal IXa
- Kd (factor VIIIa [4]; read-out: Kd, app for interaction with factor VIIIa, PL-minus system): 210 ± 10 nM
- rate of factor X activation, Ca2+ only (factor X [5]): ~0.48 nM/min

Molecule: IXaQ50P: activated EGF1 domain mutant Q50P of factor IX
- rate of factor Xa generation (factor X [3]): 0.07 nM/min
- Kd, app for interaction with factor VIIIa, PL-minus system (factor VIIIa [4]): indistinguishable from that of normal IXa
- rate of factor X activation, Ca2+ only (factor X [5]): ~0.39 nM/min

Molecule: R338A: factor IX R338A mutant described by Chang and coworkers [Protein R338A]
- factor VIIIa binding / affinity of variant (factor VIIIa [6]): without an impairment in factor VIIIa binding
- activity of variant [7]: slightly increased activity
